The values that follow come from doi:10.1101/2021.08.08.455546.

This assay deals with Human GRLBD-F602S (520-778), glucocorticoid receptor ligand binding domain (human) (UniProt P04150).
UniProt P04150, sequence (P04150 520-777 F602S): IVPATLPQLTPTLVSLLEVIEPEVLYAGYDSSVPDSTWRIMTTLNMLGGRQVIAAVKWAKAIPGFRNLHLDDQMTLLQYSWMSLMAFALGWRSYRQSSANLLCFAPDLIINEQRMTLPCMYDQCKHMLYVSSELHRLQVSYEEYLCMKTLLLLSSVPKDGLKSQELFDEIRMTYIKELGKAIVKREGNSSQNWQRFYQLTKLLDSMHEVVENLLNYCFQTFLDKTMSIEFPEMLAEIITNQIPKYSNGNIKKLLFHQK

“Human Hsp90β (from UniProt P08238 1-724) (natural protein)” returned a relaxation energy of the GRLBD chain with hHsp90 in absence of ATP of 42 KBT.
